Measured values taken from patent publication US20240287208A1 (CONCEPT TO MEDICINE BIOTECH, published 2024).

Experiments:
human CD40-His protein = target: T1, human CD40-His protein (human, UniProt P25942 21-193); assay: ELISA, plate-coated human CD40-His
T1 construct: His-tagged recombinant protein; also called human CD40-his tag; recombinant CD40 protein
Protocol: (§1) To evaluate the binding activity of clones 42p155, 2p834, 2p931, 42p655, 2p1294, 2p957, 42p495, 3p78, 2p415, 2p442, 2p551, 2p80 and 2p1130, the chimeric monospecific antibody (mAb) from these clones were subjected to ELISA test, along with selicrelumab, the clinical benchmark anti-CD40 agonist antibodies.
(§2) Briefly, microtiter plates were coated with human CD40-His protein at 1.0 μg/ml in PBS, 100 μl/well at 4° C. overnight, then blocked with 150 µl/well of 1% BSA. Ten-fold dilutions of 42p155, 2p834, 2p931, 42p655, 2p1294, 2p957, 42p495, 3p78, 2p415, 2p442, 2p551, 2p80 and 2p1130 antibodies starting from 100 nM were added to each well and incubated for 1 hour at RT. The plates were washed with PBS/Tween and then incubated with Anti-Human IgG (H&L) (GOAT) Antibody Peroxidase Conjugated for 30 mins at RT. After washing, the plates were developed with TMB substrate and analyzed by spectrophotometer at OD 450 nm.

human OX40 protein = target: T2, human OX40 protein (human, UniProt P43489 29-216, limits assumed); assay: ELISA, plate-coated protein
T2 sequence (looked up): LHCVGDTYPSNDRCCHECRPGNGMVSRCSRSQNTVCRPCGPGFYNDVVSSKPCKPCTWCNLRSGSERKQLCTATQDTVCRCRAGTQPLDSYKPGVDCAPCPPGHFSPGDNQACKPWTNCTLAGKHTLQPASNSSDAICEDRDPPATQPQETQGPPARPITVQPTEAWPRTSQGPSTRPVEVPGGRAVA
Protocol: (§3) To evaluate the cross reactivity of chimeric anti-CD40 antibodies to other family members of TNF receptors, the ELISA binding towards human 4-1BB and human OX40 were performed.
as §2, with “4-1BB protein or human OX40” for “CD40-His”, “1” for “1.0”, “μl/well” for “µl/well”

human 4-1BB protein = target: T3, human 4-1BB protein (human, UniProt Q07011 24-186); assay: ELISA, plate-coated protein
T3 construct: also called 4-IBB
Protocol: as §3
as §2, with “4-1BB protein or human OX40” for “CD40-His”, “1” for “1.0”, “μl/well” for “µl/well”

[1] = target: T4, cynomolgus CD40-His protein (cynomolgus, UniProt G7PG38 21-193); assay: ELISA, plate-coated cynomolgus CD40-His
T4 construct: His-tagged recombinant protein; also called cyno CD40 antigen
Protocol: as §1
as §2, with “The binding affinity of these clones to cynomolgus CD40 was also tested. Microtiter” for “Briefly, microtiter”, “cynomolgus” for “human”, “µl/well” for “μl/well”, “nm. As shown in FIG. 1B and Table 2, all these clones bound to cynomolgus CD40 at high activity, showing good cross-reactivity between human and cynomolgus CD40 proteins.” for “nm.”

[2] = target: T5, human CD40 on the cell surface (human, UniProt P25942 21-277); assay: cell-based or functional assay
[3] = target: T5, human CD40 on the cell surface; assay: FACS, Jurkat cells overexpressing human CD40, PE anti-human IgG, MFI
Protocol: To evaluate the binding affinity of 5T4-CD40 bispecific antibodies to cell surface CD40, bispecific antibodies with formats of b 1 (42p155z2), b12 (42p155z2), b13 (42p155z2), b16 (42p155z2), b17 (42p155z2) and b18 (2p1130) were tested in Jurkat cell lines that overexpressed CD40 by FACS. A total number of 1×10⁵ Jurkat-CD40 cells in each well were incubated with 5-fold serially diluted antibodies starting from 100 nM for 30 minutes at 4° C. in FACS buffer. After wash by FACS buffer, PE conjugated-anti-human IgG antibody was added to each well and incubated at 4° C. for 30 minutes. After wash, MFI of PE was evaluated by MACSQuant Analyzer 16.

T5 sequence (P25942 21-277): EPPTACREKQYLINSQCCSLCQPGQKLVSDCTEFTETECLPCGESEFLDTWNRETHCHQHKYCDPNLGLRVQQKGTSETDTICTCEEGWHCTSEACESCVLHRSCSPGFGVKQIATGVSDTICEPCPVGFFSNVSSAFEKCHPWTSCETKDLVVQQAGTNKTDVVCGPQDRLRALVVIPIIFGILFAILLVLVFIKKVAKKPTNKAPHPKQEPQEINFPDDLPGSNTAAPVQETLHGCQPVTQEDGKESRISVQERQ
T1 sequence (P25942 21-193 limits assumed): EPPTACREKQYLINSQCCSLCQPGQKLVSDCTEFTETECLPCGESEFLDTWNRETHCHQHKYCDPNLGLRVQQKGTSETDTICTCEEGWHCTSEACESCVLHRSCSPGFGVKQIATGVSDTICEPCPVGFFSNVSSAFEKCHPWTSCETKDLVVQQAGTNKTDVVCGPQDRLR

Binder | EC50 (human CD40-His protein) [nM] | binding result (human OX40 protein) | binding result (human 4-1BB protein) | EC50 [1] [nM] | CD40 NF-κB luciferase reporter (Jurkat), RLU [2] [nM] | EC50 (read off the curve) [3] [nM] | binding result [3]
2p1130 chimeric monospecific antibody (antibody, V domains shown, Chimeric monospecific antibody) VH: EVQVVESGGGLVQPGGSLRLTCAASGFSVDDYGIGWFRQAPGREREGVACITPNGLMMNFANTVGSVAGRFSASRDSGENTVSLQMSSLKPEDTAIYFCAHSRDDSCRGSLSDYDDWGQGTQVTVSS | 2.56 | no binding (tested: 100 nM (highest concentration)) | no binding (tested: 100 nM (highest concentration)) | 0.73 | > 10 |  | 
2p551 chimeric monospecific antibody (antibody, V domains shown, Chimeric monospecific antibody) VH: QLHFVESGGGLVQPGGSLRLSCAASGFTLDYYAIGWFRQAPGKEREGVSCISGGGSTRYADSVKGRFTISRDNAKNTVYLQMNSLTPEDTAVYYCAAARLLSTNCVPRDSGSWGQGTQVTVSS | 1.4 | no binding (tested: 100 nM (highest concentration)) | no binding (tested: 100 nM (highest concentration)) | 0.13 | > 10 |  | 
2p415 chimeric monospecific antibody (antibody, V domains shown, Chimeric monospecific antibody) VH: QLHFVESGGGLVQPGGSLRLSCAASGFTLDHYAMGWFRQAPGKEREGVSCISGGGSTRYADSAKGRFTISRDNAKNTVYLQMNSLTPEDTAVYYCAAARLLSRNCVPRDSGSWGQGTQVTVSS | 1.27 | no binding (tested: 100 nM (highest concentration)) | no binding (tested: 100 nM (highest concentration)) | 0.23 | > 10 |  | 
42p155 chimeric monospecific antibody (antibody, V domains shown, Chimeric monospecific antibody (cAb) made from the VHH; also called 42p155 cAb) VH: PSQLVESGGGLVQPGGSLRLSCAASGFAFRSYTMSWVRQAPGKGLEWVSTITHNGAITTYAESAQGRFTISRDNAKNTLYLQMNSLKPEDTAVYYCAQGGGSNYYRESWGQGTQVTVSS |  | no binding (tested: 100 nM (highest concentration)) | no binding (tested: 100 nM (highest concentration)) |  | > 10 |  | 
2p1294 chimeric monospecific antibody (antibody, V domains shown, Chimeric monospecific antibody) VH: QVQLVESGGGLVQPGGSLRLSCAASGFSFRRYTMSWVRQAPGKGLEWVSAISDNGAITTYTESAQGRFTISRDNAKNTLYLQMNSLKPEDTAVYYCAQGGGSNYYRESWGQGTQVTVSS | 1.16 | no binding (tested: 100 nM (highest concentration)) | no binding (tested: 100 nM (highest concentration)) | 0.32 | > 10 |  | 
42p655 chimeric monospecific antibody (antibody, V domains shown, Chimeric monospecific antibody) VH: AVQLVESGGGLVQPGGSLRLSCAASGFAFRRYTMSWVRQAPGKGLEWVSSITDNGSITTYAESAQGRFTISRDNAKNTLYLQMNSLKPEDTAVYHCAQGGGSNYYRESWGQGTQVTVSS | 1.24 | no binding (tested: 100 nM (highest concentration)) | no binding (tested: 100 nM (highest concentration)) | 0.35 | > 10 |  | 
b18 (2p1130) anti-5T4/CD40 bispecific antibody (bispecific antibody, human IgG1, kappa, N297A, also called 1+3 b18 format) heavy 1: EVQLQQSGPELVKPGASVKISCKASGYAFSSSWMNWVKQRPGKGLEWIGRIYREDGHTNYNGKFKGKATLTADKSSTTAYMQLTSLTSEDSAVYFCANGGAMDYWGQGTSVTVSSASTKGPSVFPLAPSSKSTSGGTAALGCLVKDYFPEPVTVSWNSGALTSGVHTFPAVLQSSGLYSLSSVVTVPSSSLGTQTYICNVNHKPSNTKVDKKVEPKSCDKTHTCPPCPAPELLGGPSVFLFPPKPKDTLMISRTPEVTCVVVDVSHEDPEVKFNWYVDGVEVHNAKTKPREEQYASTYRVVSVLTVLHQDWLNGKEYKCKVSNKALPAPIEKTISKAKGQPREPQVCTLPPSREEMTKNQVSLSCAVKGFYPSDIAVEWESNGQPENNYKTTPPVLDSDGSFFLVSKLTVDKSRWQQGNVFSCSVMHEALHNHYTQKSLSLSPGK light: DIQMTQSTSSLSASLGDRVTISCRASQDISNYLNWYQQKPDGTVKLLIYYTSRLHSGVPSRFSGSGSGTDYSLTISNLEQEDIATYFCQQDNTLPWTFGGGTKLEIKRTVAAPSVFIFPPSDEQLKSGTASVVCLLNNFYPREAKVQWKVDNALQSGNSQESVTEQDSKDSTYSLSSTLTLSKADYEKHKVYACEVTHQGLSSPVTKSFNRGEC heavy 2: not shown |  |  |  |  |  | ~2 | 
b11 (42p155z2) anti-5T4/CD40 bispecific antibody (bispecific antibody, human IgG1, kappa, N297A, also called b 1 (42p155z2); 2+2 b11 format) heavy: not shown light: DIQMTQSTSSLSASLGDRVTISCRASQDISNYLNWYQQKPDGTVKLLIYYTSRLHSGVPSRFSGSGSGTDYSLTISNLEQEDIATYFCQQDNTLPWTFGGGTKLEIKRTVAAPSVFIFPPSDEQLKSGTASVVCLLNNFYPREAKVQWKVDNALQSGNSQESVTEQDSKDSTYSLSSTLTLSKADYEKHKVYACEVTHQGLSSPVTKSFNRGEC |  |  |  |  |  |  | binds
2p957 chimeric monospecific antibody (antibody, V domains shown, Chimeric monospecific antibody) VH: PVQLVESGGGLVQPGGSLRLSCAASGFSFRNYIMSWVRQAPGKGLEWLSSITNSGGITSYTESVKGRFTISRDNAKNTLYLQMNSLKPEDTAVYYCAQGGSDNYYRGSWGQGTQVTVSS | 1.8 | no binding (tested: 100 nM (highest concentration)) | no binding (tested: 100 nM (highest concentration)) | 1.08 | > 10 |  | 
b13 (42p155z2) anti-5T4/CD40 bispecific antibody (bispecific antibody, human IgG1, kappa, N297A, also called 2+2 b13 format) heavy: not shown light: DIQMTQSTSSLSASLGDRVTISCRASQDISNYLNWYQQKPDGTVKLLIYYTSRLHSGVPSRFSGSGSGTDYSLTISNLEQEDIATYFCQQDNTLPWTFGGGTKLEIKRTVAAPSVFIFPPSDEQLKSGTASVVCLLNNFYPREAKVQWKVDNALQSGNSQESVTEQDSKDSTYSLSSTLTLSKADYEKHKVYACEVTHQGLSSPVTKSFNRGECGGGGSGGGGSGGGGSGGGGSEVQLVESGGGLVQPGGSLRLSCAASGFAFRSYTMSWVRQAPGKGLEWVSTITHNGAITTYAESAQGRFTISRDNSKNTLYLQMNSLRAEDTAVYYCAQGGGSNYYRESWGQGTQVTVSS |  |  |  |  |  |  | binds
42p495 chimeric monospecific antibody (antibody, V domains shown, Chimeric monospecific antibody) VH: PVQLVESGGNLVQPGGSLRLSCVAPGFTSRNSAMSWVRQAPGKGLEWVSTIYSGKSNTDYADSVKGRFTISTDNAKNTLYLHMNKLKSEDTAVYYCAKGAASDWYVPRDYWGQGTQVTVSS | 1.52 | no binding (tested: 100 nM (highest concentration)) | no binding (tested: 100 nM (highest concentration)) | 1 | > 10 |  | 
